Reference: patent publication US20050119464

Experiments:
cystatin C, P01034 = target: T1, cystatin C, P01034
T1 chain: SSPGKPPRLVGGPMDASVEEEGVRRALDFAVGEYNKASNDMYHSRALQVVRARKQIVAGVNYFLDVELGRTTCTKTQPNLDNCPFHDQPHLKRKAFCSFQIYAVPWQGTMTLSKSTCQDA

[1] = target: T2, cystatin C from mouse, P21460
T2 chain: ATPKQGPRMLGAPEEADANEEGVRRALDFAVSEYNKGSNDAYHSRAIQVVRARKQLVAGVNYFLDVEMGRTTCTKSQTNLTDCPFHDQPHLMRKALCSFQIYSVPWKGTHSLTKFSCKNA

[2] = target: synthetic peptide homologous to amino acids 234 to 241 of human IgG
cystatin D, P28325 = target: T3, cystatin D, P28325
T3 chain: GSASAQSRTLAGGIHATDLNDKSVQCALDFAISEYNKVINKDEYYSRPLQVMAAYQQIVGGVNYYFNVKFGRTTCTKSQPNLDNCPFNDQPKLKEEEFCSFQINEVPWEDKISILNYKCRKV

[3] = target: the different subclasses of IgG
[4] = target: T4, cystatin C from chicken, P01038
T4 chain: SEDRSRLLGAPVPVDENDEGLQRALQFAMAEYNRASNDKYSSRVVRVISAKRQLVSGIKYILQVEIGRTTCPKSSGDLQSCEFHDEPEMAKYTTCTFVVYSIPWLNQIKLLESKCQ

[5] = target: Fc-fragment generated by papain cleavage, including 12 amino acids of the hinge region
[6] = target: T5, antimicrobial peptide LL-37, P49913
T5 chain: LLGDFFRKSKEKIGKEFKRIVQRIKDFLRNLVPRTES

H-kininogen, P01042 = target: T6, H-kininogen, P01042
T6 chain: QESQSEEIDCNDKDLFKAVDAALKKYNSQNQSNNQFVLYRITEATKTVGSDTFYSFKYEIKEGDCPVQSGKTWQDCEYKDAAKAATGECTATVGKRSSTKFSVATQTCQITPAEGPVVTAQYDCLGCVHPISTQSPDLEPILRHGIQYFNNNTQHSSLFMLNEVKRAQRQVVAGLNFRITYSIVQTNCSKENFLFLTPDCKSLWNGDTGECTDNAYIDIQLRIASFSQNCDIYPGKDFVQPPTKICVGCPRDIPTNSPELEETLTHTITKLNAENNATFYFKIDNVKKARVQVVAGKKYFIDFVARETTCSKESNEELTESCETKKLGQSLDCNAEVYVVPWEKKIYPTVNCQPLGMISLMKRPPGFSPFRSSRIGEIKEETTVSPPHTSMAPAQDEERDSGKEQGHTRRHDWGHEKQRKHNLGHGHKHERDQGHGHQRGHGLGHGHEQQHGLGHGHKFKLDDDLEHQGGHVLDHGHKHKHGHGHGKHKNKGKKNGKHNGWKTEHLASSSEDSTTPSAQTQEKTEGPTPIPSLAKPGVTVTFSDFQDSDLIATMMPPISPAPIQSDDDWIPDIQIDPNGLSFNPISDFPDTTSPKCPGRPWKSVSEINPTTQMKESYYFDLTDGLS

Z-LVG-CHN2 = target: T7, Z-LVG-CHN2
T7 chain: LVG

[7] = target: T8, cystatin C from rat, P14841
T8 chain: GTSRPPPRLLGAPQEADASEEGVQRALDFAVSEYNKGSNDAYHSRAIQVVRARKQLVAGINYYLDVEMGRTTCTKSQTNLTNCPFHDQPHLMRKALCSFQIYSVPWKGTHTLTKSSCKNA

fibrinogen, P02671 = target: T9, fibrinogen, P02671
T9 chain 1: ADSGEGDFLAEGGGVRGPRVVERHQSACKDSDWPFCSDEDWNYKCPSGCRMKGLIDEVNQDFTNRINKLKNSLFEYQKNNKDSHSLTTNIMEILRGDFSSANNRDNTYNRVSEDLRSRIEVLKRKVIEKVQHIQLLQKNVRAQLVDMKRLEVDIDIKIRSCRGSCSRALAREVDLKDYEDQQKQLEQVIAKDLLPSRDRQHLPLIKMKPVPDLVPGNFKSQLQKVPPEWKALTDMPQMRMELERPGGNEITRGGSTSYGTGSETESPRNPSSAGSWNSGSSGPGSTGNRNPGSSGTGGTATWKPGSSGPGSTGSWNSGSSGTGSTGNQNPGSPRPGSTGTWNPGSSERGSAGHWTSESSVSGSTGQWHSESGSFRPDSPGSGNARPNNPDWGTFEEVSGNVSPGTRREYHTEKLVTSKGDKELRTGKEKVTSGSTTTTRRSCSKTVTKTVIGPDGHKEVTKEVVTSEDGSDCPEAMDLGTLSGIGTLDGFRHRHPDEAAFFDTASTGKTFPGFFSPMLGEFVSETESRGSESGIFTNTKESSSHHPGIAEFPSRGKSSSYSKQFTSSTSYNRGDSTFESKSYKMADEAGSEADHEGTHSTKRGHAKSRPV
T9 chain 2: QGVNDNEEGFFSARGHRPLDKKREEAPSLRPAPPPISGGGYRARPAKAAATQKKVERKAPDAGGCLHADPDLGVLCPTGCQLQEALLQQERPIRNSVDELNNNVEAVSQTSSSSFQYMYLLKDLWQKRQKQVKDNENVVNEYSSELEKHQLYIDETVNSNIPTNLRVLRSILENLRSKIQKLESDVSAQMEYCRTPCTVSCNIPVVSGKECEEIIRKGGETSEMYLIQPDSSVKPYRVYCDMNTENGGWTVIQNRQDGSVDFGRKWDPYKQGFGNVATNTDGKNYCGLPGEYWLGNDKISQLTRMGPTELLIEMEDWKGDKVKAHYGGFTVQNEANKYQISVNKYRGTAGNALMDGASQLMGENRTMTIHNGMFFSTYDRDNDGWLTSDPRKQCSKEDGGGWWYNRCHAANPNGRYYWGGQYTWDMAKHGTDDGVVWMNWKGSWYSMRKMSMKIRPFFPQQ
T9 chain 3: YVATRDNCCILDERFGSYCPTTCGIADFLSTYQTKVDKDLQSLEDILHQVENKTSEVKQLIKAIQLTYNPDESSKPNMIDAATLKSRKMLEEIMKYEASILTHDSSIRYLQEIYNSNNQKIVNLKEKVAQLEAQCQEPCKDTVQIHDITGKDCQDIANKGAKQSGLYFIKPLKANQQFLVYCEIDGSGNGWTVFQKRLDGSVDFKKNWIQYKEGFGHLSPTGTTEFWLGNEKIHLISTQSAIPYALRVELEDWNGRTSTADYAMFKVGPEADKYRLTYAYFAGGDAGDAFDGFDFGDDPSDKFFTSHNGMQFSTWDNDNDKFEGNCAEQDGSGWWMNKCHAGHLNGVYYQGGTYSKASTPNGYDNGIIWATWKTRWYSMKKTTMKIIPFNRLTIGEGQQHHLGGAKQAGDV

Chain of transferrin, P02787 (P02787 20-698): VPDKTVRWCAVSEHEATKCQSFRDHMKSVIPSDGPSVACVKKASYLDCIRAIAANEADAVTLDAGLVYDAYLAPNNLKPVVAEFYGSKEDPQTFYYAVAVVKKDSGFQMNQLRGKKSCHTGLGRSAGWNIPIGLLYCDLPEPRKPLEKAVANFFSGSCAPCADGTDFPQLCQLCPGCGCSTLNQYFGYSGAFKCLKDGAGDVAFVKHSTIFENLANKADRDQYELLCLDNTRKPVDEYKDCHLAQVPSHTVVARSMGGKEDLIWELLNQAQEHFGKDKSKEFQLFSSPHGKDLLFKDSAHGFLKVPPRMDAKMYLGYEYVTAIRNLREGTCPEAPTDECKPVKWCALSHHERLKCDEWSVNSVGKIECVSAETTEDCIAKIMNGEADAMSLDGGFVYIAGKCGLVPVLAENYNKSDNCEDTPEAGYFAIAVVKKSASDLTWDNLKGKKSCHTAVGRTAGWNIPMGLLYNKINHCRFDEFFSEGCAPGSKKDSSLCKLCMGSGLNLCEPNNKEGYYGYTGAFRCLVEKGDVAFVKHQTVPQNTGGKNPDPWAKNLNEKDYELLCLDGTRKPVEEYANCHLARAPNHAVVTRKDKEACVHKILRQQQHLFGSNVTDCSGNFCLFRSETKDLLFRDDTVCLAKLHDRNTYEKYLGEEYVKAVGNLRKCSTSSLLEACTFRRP
Chain of α 1-antitrypsin, P01009 (P01009 whole entry, looked up): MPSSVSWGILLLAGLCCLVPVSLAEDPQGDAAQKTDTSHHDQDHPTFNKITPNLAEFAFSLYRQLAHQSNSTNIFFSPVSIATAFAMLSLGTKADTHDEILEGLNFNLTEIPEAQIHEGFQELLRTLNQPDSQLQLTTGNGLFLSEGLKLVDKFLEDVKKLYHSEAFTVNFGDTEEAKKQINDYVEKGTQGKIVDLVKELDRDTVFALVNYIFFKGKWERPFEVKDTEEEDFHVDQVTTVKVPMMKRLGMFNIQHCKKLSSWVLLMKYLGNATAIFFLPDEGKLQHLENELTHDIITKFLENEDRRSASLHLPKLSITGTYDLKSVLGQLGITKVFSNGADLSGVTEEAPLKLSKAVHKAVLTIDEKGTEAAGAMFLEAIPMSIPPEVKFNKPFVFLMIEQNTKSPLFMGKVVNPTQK
Chain of lactoferrin, P02788 (P02788 20-710): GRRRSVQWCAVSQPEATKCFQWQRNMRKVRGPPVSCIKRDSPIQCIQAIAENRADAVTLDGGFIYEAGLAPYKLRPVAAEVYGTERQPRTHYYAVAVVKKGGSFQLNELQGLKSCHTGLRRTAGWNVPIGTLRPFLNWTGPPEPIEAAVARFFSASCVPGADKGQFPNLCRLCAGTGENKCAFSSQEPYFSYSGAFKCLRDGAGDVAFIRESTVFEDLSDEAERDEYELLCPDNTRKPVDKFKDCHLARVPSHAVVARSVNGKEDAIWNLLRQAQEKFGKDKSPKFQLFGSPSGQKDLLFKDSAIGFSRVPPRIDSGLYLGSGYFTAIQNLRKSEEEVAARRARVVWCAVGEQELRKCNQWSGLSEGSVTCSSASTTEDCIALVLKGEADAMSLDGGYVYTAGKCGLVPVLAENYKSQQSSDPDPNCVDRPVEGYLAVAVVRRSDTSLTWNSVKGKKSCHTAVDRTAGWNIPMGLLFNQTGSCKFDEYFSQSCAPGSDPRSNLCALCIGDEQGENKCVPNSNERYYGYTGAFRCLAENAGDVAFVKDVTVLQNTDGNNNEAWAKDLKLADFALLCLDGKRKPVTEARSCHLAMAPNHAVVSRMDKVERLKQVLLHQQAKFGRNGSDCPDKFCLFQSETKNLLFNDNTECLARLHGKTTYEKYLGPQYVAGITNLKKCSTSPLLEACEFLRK
Chain of fibronectin, P02751 (P02751 other isoform, or with tags, fused parts or gaps): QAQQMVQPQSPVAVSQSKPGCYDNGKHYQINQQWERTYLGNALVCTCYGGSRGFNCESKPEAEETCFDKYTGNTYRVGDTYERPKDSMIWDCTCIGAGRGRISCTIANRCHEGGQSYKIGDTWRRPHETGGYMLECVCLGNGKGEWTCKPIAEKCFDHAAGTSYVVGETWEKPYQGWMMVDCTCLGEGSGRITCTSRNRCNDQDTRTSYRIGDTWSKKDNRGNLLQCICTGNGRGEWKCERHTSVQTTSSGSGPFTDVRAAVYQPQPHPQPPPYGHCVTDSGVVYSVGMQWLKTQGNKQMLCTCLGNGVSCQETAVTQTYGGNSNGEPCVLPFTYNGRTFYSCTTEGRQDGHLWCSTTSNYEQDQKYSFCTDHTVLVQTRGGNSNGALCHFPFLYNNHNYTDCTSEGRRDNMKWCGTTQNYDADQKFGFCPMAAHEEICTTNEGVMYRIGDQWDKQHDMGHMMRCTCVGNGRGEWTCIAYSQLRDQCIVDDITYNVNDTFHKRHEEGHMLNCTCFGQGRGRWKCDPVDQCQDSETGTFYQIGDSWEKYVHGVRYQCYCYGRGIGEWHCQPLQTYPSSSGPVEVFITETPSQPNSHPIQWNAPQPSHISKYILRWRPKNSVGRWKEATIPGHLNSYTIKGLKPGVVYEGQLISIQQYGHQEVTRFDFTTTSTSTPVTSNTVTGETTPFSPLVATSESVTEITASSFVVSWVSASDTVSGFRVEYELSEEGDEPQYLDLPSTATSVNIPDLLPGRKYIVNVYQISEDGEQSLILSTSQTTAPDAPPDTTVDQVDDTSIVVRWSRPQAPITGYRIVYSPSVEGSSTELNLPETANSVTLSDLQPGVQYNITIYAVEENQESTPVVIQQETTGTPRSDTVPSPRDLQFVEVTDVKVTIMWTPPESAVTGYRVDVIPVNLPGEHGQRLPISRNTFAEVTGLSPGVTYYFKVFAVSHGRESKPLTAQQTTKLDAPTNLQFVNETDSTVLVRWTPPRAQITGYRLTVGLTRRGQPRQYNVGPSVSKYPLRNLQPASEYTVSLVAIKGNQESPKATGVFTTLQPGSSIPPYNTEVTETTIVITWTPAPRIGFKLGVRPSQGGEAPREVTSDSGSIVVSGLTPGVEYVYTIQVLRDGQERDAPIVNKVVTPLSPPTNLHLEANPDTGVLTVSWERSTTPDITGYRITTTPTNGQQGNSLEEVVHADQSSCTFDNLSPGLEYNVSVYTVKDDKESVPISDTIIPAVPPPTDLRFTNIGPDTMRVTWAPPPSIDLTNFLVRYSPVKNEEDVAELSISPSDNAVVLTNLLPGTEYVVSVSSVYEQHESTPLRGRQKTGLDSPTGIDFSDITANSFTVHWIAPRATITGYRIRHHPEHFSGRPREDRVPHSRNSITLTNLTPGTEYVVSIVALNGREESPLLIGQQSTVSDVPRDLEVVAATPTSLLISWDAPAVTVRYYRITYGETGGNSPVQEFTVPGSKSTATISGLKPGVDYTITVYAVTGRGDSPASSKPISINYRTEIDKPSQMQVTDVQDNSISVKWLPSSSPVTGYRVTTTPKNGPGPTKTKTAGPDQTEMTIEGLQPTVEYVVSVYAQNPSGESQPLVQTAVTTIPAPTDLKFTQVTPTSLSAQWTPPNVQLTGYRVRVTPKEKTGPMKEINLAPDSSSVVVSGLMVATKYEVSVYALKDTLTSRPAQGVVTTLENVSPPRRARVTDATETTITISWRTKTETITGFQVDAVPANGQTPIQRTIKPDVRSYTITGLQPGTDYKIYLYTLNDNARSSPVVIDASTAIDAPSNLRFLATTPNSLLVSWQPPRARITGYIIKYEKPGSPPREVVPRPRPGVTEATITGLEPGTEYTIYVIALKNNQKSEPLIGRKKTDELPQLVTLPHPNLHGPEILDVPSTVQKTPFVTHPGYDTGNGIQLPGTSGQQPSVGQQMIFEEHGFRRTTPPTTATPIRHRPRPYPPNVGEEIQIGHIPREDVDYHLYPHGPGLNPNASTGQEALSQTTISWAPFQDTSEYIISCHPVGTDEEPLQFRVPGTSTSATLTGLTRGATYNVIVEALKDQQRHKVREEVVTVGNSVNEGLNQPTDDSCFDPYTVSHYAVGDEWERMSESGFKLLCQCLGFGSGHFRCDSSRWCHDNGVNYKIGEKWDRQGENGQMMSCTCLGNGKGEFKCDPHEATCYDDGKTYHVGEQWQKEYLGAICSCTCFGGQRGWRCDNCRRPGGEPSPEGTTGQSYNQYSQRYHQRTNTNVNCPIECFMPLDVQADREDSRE

B1: IdeS (Immunoglobulin G-degrading enzyme of S. pyogenes), purified from culture supernatant of S. pyogenes strain AP1 (protein)
chain: DSFSANQEIRYSEVTPYHVTSVWTKGVTPPANFTQGEDVFHAPYVANQGWYDITKTFNGKDDLLCGAATAGNMLHWWFDQNKDQIKRYLEEHPEKQKINFNGEQMFDVKEAIDTKNHQLDSKLFEYFKEKAFPYLSTKHLGVFPDHVIDMFINGYRLSLTNHGPTPVKEGSKDPRGGIFDAVFTRGDQSKLLTSRHDFKEKNLKEISDLIKKELTEGKALGLSHTYANVRINHVINLWGADFDSNGNLKAIYVTDSDSNASIGMKKYFVGVNSAGKVAISAKEIKEDNIGAQVLGLFTLSTGQDSWNQTN
cleavage products (cystatin C, P01034): No cleavage products could be detected | cleavage products [1]: No cleavage products could be observed | degradation of the peptide [2]: did not reveal any degradation of the peptides | cleavage products (cystatin D, P28325): No cleavage products could be detected | cleavage products (fibronectin, P02751): No cleavage products could be detected | IdeS digestion [3]: all were susceptible for IdeS digestion | cleavage products (transferrin, P02787): No cleavage products could be detected | cleavage products [4]: No cleavage products could be observed | cleavage products (lactoferrin, P02788): No cleavage products could be detected | cleavage [5]: a Fc-fragment generated by papain cleavage, including 12 amino acids of the hinge region is cleaved by IdeS | cleavage products (α 1-antitrypsin, P01009): No cleavage products could be detected | degradation of the peptide [6]: did not reveal any degradation of the peptides | cleavage products (H-kininogen, P01042): No cleavage products could be detected | cleavage of the peptide (Z-LVG-CHN2): Neither was the synthetic peptide Z-LVG-CHN2, which inhibits IdeS activity, cleaved by excess IdeS | cleavage products [7]: No cleavage products could be observed | cleavage products (fibrinogen, P02671): No cleavage products could be detected | cleavage products (whole human plasma): No cleavage products could be detected | cleavage products (aprotinin, P00974): No cleavage products could be detected | cleavage products (albumin, P02768): No cleavage products could be detected | cleavage products (laminin): No cleavage products could be detected
